Measurements as given in PMC8965321.

Target: GP46 protein of Lactococcus lactis phage vB_Llc_bIBBF13 (F13), purified, SUMO tag removed (Lactococcus lactis phage vB_Llc_bIBBF13 (F13))
Test: SEC-MALS; GP46F13 100 ul injected at 1.5 mg/ml on Superdex 200 Increase 10/300, room temperature, 0.5 ml/min, 50 mM Tris-HCl pH 8, 500 mM NaCl, 20 mM imidazole, no cofactors

GP46 protein of Lactococcus lactis phage vB_Llc_bIBBF13 (F13), purified, SUMO tag removed (enzyme)
stoichiometry N: 2
